The chains are these.
B1: FY1/39 BiS1 100/44 (bispecific antibody)
light: DIQMTQSPSSVSASVGDRVTITCRASQDISTWLAWYQQKPGKAPKLLIYAASSLQSGVPSRFSGSGSGTDFTLTISSLQPEDFATYFCQQANSFPPTFGCGTKLEIKGGGGSGGGGSGGGGSGGGGSEVQLVVSGGGLVKPGGSLRLSCAASGLSFLNAWMSWVRQAPGKCLEWVGRIKSNTDGGTTDYAAPVKGRFSISRDDSKNMLFLHMSSLRTEDTAVYYCATDGPYSDDFRSGYAARYRYFGMDVWGQGTTVTVSSGGGGSGGGGSDIQMTQSPSSLSASVGDRVTITCRTSQSLSSYLHWYQQKPGKAPKLLIYAASSLQSGVPSRFSGSGSGTDFTLTISSLQPEDFATYYCQQSRTFGQGTKVEIKRTVAAPSVFIFPPSDEQLKSGTASVVCLLNNFYPREAKVQWKVDNALQSGNSQESVTEQDSKDSTYSLSSTLTLSKADYEKHKVYACEVTHQGLSSPVTKSFNRGEC
heavy: not shown
B2: FY1/94 BiS2 100/44 (bispecific antibody)
light: DIQMTQSPSSLSASVGDRVTITCRTSQSLSSYLHWYQQKPGKAPKLLIYAASSLQSGVPSRFSGSGSGTDFTLTISSLQPEDFATYYCQQSRTFGQGTKVEIKRTVAAPSVFIFPPSDEQLKSGTASVVCLLNNFYPREAKVQWKVDNALQSGNSQESVTEQDSKDSTYSLSSTLTLSKADYEKHKVYACEVTHQGLSSPVTKSFNRGEC
heavy: not shown
B3: FY1/39 BiS2 100/44 (bispecific antibody)
light: B2 light
heavy: not shown
B4: FY1/94 BiS4 100/44 (bispecific antibody)
light: B2 light
heavy: not shown
B5: FY1/39 BiS3 100/44 (bispecific antibody)
light: B2 light
heavy: not shown

Chain of HA of A/Wilson Smith N/33 (H1N1) (P03454 18-565 limits assumed): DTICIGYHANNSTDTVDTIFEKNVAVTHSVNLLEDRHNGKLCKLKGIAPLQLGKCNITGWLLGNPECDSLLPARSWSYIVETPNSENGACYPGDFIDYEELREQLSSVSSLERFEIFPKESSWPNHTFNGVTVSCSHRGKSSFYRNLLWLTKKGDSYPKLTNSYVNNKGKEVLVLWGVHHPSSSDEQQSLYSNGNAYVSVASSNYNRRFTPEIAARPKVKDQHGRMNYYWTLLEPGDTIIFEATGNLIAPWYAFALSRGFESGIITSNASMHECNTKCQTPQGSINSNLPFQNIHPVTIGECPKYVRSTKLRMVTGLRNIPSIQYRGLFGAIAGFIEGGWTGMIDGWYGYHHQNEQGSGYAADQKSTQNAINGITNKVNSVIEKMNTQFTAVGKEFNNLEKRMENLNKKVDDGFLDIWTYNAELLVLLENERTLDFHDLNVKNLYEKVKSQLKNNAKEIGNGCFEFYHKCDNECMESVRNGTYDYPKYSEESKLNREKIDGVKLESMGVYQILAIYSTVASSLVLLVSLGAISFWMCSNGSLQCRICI

One test addresses HA of A/Wilson Smith N/33 (H1N1) (influenza A virus, UniProt P03454 18-565). In words: cell-based or functional assay.
In the case of B1, the “Neutralization (IC50)” value turned out to be 28.2 nM.
Take B2: the “Neutralization (IC50)” value is 19.9 nM.
Consider B3, for which the “Neutralization (IC50)” value came out at 17.7 nM.
In the case of B4, the “Neutralization (IC50)” value worked out at 7.3 nM.
With B5, the “Neutralization (IC50)” value amounted to 10.6 nM.

The target in another test is HA of B/Hong Kong/330/2001 (victoria) (influenza B virus). As to the kind of experiment: cell-based or functional assay.
On to B1, for which the “Neutralization (IC50)” value was 5.3 nM.
Still for that read-out and setting: the result for B2 reads 2.1 nM.
Consider B3, for which the “Neutralization (IC50)” value amounted to 7 nM.
In the case of B4, the “Neutralization (IC50)” value was found to be 4 nM.
As to B5, the “Neutralization (IC50)” value was found to be 112 nM.

A further test has as its target HA of A/California/07/2009 (H1N1) (influenza A virus). In words: cell-based or functional assay.
As to B1, the “Neutralization (IC50)” value was 32.5 nM.
Consider B2, for which the “Neutralization (IC50)” value worked out at 23.1 nM.
Consider B3, for which the “Neutralization (IC50)” value was determined as 18.7 nM.
On the same count and under the same terms, the result for B4 reads 6.2 nM; that for B5, 9.9 nM.

The target in a further test is HA of ca A/Panama/2007/99 (H3N2) (influenza A virus). As to the kind of experiment: cell-based or functional assay.
On to B1, for which the “Neutralization (IC50)” value was more than 1000 nM.
For B2, the “Neutralization (IC50)” value was determined as 484 nM.
In the case of B3, the “Neutralization (IC50)” value was more than 1000 nM.
On to B4, for which the “Neutralization (IC50)” value is 38.2 nM.
On the same count and under the same terms, the result for B5 reads 149 nM.

A further test addresses HA of A/Solomon Island/3/2006 (H1N1) (influenza A virus). As to the kind of experiment: cell-based or functional assay.
With B1, the “Neutralization (IC50)” value amounted to 14.7 nM.
Still for that read-out and setting: the result for B2 reads 4.1 nM; that for B3, 9.9 nM.
For the molecule B4, the “Neutralization (IC50)” value was found to be 2.5 nM.
For the molecule B5, the “Neutralization (IC50)” value turned out to be 2.5 nM.

A further test deals with HA of B/Florida/4/2006 (yamagata) (influenza B virus). In words: cell-based or functional assay.
As to B1, the “Neutralization (IC50)” value worked out at 1.1 nM.
The same measure, in the same setting: the result for B2 reads 0.6 nM.
On the same count and under the same terms, the result for B3 reads 1.7 nM; that for B4, 1.8 nM.
Still for that read-out and setting: the result for B5 reads 5.9 nM.

The target in a further test is HA of B/Sichuan/379/99 (yamagata) (influenza B virus). As to the kind of experiment: cell-based or functional assay.
As for B1, the “Neutralization (IC50)” value is 1.5 nM.
Still for that read-out and setting: the result for B2 reads 1.7 nM.
Same read-out and setting: the result for B3 reads 2.1 nM; that for B4, 5.2 nM.
Regarding B5, the “Neutralization (IC50)” value worked out at 12.3 nM.

The next test concerns the target HA of A/Beijing/262/95 (H1N1) (influenza A virus). In words: cell-based or functional assay.
With B1, the “Neutralization (IC50)” value came out at 62.2 nM.
Still for that read-out and setting: the result for B2 reads 42 nM; that for B3, 61.3 nM; that for B4, 13.1 nM.
For B5, the “Neutralization (IC50)” value is 20.2 nM.

The target of a further test is HA of B/Malaysia/2506/2004 (victoria) (influenza B virus). As to the kind of experiment: cell-based or functional assay.
For the molecule B1, the “Neutralization (IC50)” value was found to be 4.1 nM.
Take B2: the “Neutralization (IC50)” value was found to be 0.8 nM.
In the case of B3, the “Neutralization (IC50)” value stood at 5.6 nM.
Take B4: the “Neutralization (IC50)” value stood at 1.8 nM.
In the case of B5, the “Neutralization (IC50)” value came out at 43.7 nM.

The next test deals with HA of ca B/Beijing/243/97 (victoria) (influenza B virus). In words: cell-based or functional assay.
Regarding B1, the “Neutralization (IC50)” value amounted to 3.6 nM.
Regarding B2, the “Neutralization (IC50)” value amounted to 1.1 nM.
On the same count and under the same terms, the result for B3 reads 6.1 nM.
Still for that read-out and setting: the result for B4 reads 1.8 nM; that for B5, 21.5 nM.

The next test deals with HA of A/Victoria/3/75 (H3N2) (influenza A virus). In words: cell-based or functional assay.
Regarding B1, the “Neutralization (IC50)” value came out at 337 nM.
The same measure, in the same setting: the result for B2 reads 15.8 nM; that for B3, more than 1000 nM.
As to B4, the “Neutralization (IC50)” value amounted to 7.2 nM.
The same measure, in the same setting: the result for B5 reads 45.2 nM.

A further test concerns the target HA of A/Hong Kong/8/68 (H3N2) (influenza A virus). As to the kind of experiment: cell-based or functional assay.
Take B1: the “Neutralization (IC50)” value is 31.4 nM.
Consider B2, for which the “Neutralization (IC50)” value turned out to be 17.2 nM.
As to B3, the “Neutralization (IC50)” value is 10.2 nM.
Consider B4, for which the “Neutralization (IC50)” value was found to be 9.1 nM.
On to B5, for which the “Neutralization (IC50)” value came out at 5.8 nM.

Another test has as its target HA of A/Shan dong/9/93 (H3N2) (influenza A virus). In words: cell-based or functional assay.
In the case of B1, the “Neutralization (IC50)” value was more than 1000 nM.
B2: the “Neutralization (IC50)” value amounted to 208 nM.
With B3, the “Neutralization (IC50)” value was 72.1 nM.
For the molecule B4, the “Neutralization (IC50)” value was found to be 37.9 nM.
B5: the “Neutralization (IC50)” value was found to be 7.8 nM.

For another test, the target named is HA of B/Yamanashi/166/98 (yamagata) (influenza B virus). In words: cell-based or functional assay.
Regarding B1, the “Neutralization (IC50)” value stood at 0.1 nM.
Take B2: the “Neutralization (IC50)” value was determined as 0.5 nM.
Regarding B3, the “Neutralization (IC50)” value amounted to 0.4 nM.
With B4, the “Neutralization (IC50)” value is 2.3 nM.
As to B5, the “Neutralization (IC50)” value is 0.7 nM.

For the next test, the target named is HA of B/Ohio/1/2005 (victoria) (influenza B virus). In words: cell-based or functional assay.
Regarding B1, the “Neutralization (IC50)” value came out at 2.6 nM.
On to B2, for which the “Neutralization (IC50)” value is 1.3 nM.
As for B3, the “Neutralization (IC50)” value came out at 2.8 nM.
Regarding B4, the “Neutralization (IC50)” value worked out at 3 nM.
As to B5, the “Neutralization (IC50)” value is 8.1 nM.

Values taken from patent US20180155413A1 (AstraZeneca / MedImmune, published 2018).
